Results from patent publication US20260022175A1 (Chugai, published 2026).

T1: human FcγRIIa R allotype extracellular domain with C-terminal His-tag (human, UniProt P12318 34-217)
T1 construct: extracellular domain; also called hFcγR IIa R
T1 sequence (looked up): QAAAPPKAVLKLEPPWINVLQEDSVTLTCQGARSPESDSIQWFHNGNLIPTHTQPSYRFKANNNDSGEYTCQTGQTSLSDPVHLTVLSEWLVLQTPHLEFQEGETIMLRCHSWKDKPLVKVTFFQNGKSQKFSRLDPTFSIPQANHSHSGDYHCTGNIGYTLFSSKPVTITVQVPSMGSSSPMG

T2: human FcγRIIa H allotype extracellular domain with C-terminal His-tag (human, UniProt P12318 34-217)
T2 construct: extracellular domain; also called hFcγR IIa H
T2 sequence (looked up): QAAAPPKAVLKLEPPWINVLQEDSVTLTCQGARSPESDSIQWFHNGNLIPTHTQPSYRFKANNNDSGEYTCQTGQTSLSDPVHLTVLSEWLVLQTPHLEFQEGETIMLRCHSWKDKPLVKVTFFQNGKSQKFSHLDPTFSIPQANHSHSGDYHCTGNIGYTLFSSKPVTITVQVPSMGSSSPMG

T3: human FcγRIIb extracellular domain with C-terminal His-tag (human, UniProt P31994 43-217)
T3 construct: extracellular domain; also called hFcγR IIb
T3 sequence (looked up): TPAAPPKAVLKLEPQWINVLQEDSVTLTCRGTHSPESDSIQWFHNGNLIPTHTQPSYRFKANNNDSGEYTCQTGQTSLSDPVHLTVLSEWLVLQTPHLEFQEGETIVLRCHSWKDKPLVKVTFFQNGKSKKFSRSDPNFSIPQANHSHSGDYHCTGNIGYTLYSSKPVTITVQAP


Legend:
[1] = target: T4, human FcγRIa extracellular domain with C-terminal His-tag (human, UniProt P12314 16-292); test: SPR Biacore T200, captured Ab, pH 7.4
T4 construct: extracellular domain; also called hFcγR Ia; hFcγRIa

[2] = target: T1, human FcγRIIa R allotype extracellular …; test: SPR Biacore T200, captured Ab, pH 7.4
[3] = target: T2, human FcγRIIa H allotype extracellular …; test: SPR Biacore T200, captured Ab, pH 7.4
[4] = target: T5, human FcγRIIIa F allotype extracellular domain with C-terminal His-tag (human, UniProt P08637 17-208); test: SPR Biacore T200, captured Ab, pH 7.4
T5 construct: extracellular domain; also called hFcγR IIIa F

[5] = target: T6, human FcγRIIIa V allotype extracellular domain with C-terminal His-tag (human, UniProt P08637 17-208); test: SPR Biacore T200, captured Ab, pH 7.4
T6 construct: extracellular domain; also called hFcγR IIIa V

[6] = target: T3, human FcγRIIb extracellular domain with …; test: SPR; FcγRIIb bound amount per unit captured Ab
human FcRn [7] = target: T7, human FcRn (human, UniProt P55899 24-290; P61769 21-119); test: SPR Biacore T200, captured Ab, pH 6.0, steady state
T7 construct: Prepared by the method of WO 2010/107110; also called hFcRn

human FcRn [8] = target: T7, human FcRn; test: SPR; KD of 04H1389-G1m/04L1305-k0MT divided by KD of variant
[9] = target: T4, human FcγRIa extracellular domain with …; test: as above
[10] = target: T1, human FcγRIIa R allotype extracellular …; test: as above
[11] = target: T2, human FcγRIIa H allotype extracellular …; test: as above
[12] = target: T5, human FcγRIIIa F allotype extracellular …; test: as above
[13] = target: T6, human FcγRIIIa V allotype extracellular …; test: as above
[14] = target: T3, human FcγRIIb extracellular domain with …; test: SPR; binding amount divided by that of 04H1389-G1m/04L1305-k0MT

T5 sequence (P08637 17-208): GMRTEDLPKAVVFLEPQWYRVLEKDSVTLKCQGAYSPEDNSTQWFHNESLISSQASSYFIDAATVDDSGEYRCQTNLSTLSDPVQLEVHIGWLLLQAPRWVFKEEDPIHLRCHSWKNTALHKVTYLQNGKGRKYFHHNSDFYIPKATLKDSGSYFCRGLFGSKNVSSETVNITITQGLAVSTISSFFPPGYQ
T6 sequence (P08637 17-208 F176V): as the sequence (P08637 17-208) above, with F160V counted along it
T7 sequence (P55899 24-290 limits assumed, chain 1 of 2): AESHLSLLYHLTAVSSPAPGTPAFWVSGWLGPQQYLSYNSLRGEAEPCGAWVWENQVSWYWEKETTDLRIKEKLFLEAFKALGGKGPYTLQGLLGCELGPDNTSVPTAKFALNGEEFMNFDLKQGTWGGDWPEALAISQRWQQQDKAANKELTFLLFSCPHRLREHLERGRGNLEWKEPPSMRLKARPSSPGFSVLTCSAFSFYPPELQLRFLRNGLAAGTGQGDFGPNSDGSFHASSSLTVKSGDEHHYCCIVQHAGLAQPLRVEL
T7 sequence (P61769 21-119 limits assumed, chain 2 of 2): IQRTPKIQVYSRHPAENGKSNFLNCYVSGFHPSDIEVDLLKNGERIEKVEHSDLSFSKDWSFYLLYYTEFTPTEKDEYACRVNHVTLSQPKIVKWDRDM
T4 sequence (P12314 16-292): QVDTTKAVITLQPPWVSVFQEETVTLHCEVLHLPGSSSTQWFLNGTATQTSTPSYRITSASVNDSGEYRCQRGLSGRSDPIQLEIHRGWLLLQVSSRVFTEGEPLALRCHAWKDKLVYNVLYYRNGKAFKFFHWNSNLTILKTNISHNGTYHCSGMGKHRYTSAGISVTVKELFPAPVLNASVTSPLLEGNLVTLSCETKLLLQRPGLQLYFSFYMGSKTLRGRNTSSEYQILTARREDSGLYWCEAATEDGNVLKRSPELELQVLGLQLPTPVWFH

Row | Binder | Kd [1] [nM] | Kd [2] [nM] | Kd [3] [nM] | Kd [4] [nM] | Kd [5] [nM] | Binding amount [6] | Kd (human FcRn [7]) [nM] | Relative value to KD between G1m and hFcRn (human FcRn [8]) | Relative value to KD between G1m and hFcγRs [9] | Relative value to KD between G1m and hFcγRs [10] | Relative value to KD between G1m and hFcγRs [11] | Relative value to KD between G1m and hFcγRs [12] | Relative value to KD between G1m and hFcγRs [13] | Relative binding amount [14]
1 | 04H1389-Km473/04L1305-k0MT//04H1389-Hm451/04L1305-k0MT (antibody, Heterodimerized antibody; also called SW1389-ART5+ACT1) heavy 1: EVQLVESGGGLVKPGGSLRLSCAASGFTFSSKTMNWVRQAPGKGLEWVSSISTQSHYIYYAESVKGRFTISRDNAKNSLYLQMNSLRAEDTAVYYCARYGKREDMLWVFDYWGQGTLVTVSSASTKGPSVFPLAPSSKSTSGGTAALGCLVKDYFPEPVTVSWNSGALTSGVHTFPAVLQSSGLYSLSSVVTVPSSSLGTQTYICNVNHKPSNTKVDKRVEPKSCDKTHTCPPCPAPEFQWGPMVFLFPPKPKDVLMISRTPEVTCVVVDVSDEEPEVKFNWYVDGVEVHNAKTKPREEQYNATYRVVSVLPVLHQDWLNGKEYKCKVSNDALPAPIEKTISKAKGQPREPQVCTLPPSREEMTKNQVSLWCLVKGFYPSDIAVEWESNGQPENNYKTTPPVLDSDGSFFLYSKLTVDKSRWQQGNVFSCSVMHEALHAHTTRKELSLSP heavy 2: EVQLVESGGGLVKPGGSLRLSCAASGFTFSSKTMNWVRQAPGKGLEWVSSISTQSHYIYYAESVKGRFTISRDNAKNSLYLQMNSLRAEDTAVYYCARYGKREDMLWVFDYWGQGTLVTVSSASTKGPSVFPLAPSSKSTSGGTAALGCLVKDYFPEPVTVSWNSGALTSGVHTFPAVLQSSGLYSLSSVVTVPSSSLGTQTYICNVNHKPSNTKVDKRVEPKSCDKTHTCPPCPAPELLAGPSVFLFPPKPKDVLMISRTPEVTCVVVDVSHEEPEVKFNWYVDGVEVHNAKTKPREEQYNATYRVVSVLPVLHQDWLNGKEYKCKVSNDALPAPIEETISKAKGQPREPQVYTLPPSRCEMTKNQVSLSCAVKGFYPSDIAVEWESNGQPENNYKTTPPVLDSDGSFFLVSKLTVDKSRWQQGNVFSCSVMHEALHAHTTRKELSLSP light: DIVMTQSPLSLPVTPGEPASISCDGPSTGVGDYNYVHWYQQKPGQAPRLLIYFTSKKPSGVPDRFSGSGSGTDFTLKISRVEAEDVGVYYCQTYAAPLGPMFGQGTKLEIKRTVAAPSVFIFPPSDEQLKSGTASVVCLLNNFYPREAKVQWKVDNALQSGNSQESVTEQDSKDSTYSLSSTLTLSKADYEKHKVYACEVTHQGLSSPVTKSFNRGEC | 0.15 | 160 | 53 | 17 | 3.9 | 0.015 | 330 | 3 | 0.5 | 9.7 | 20 | 41.3 | 225 | 1.3
2 | 04H1389-Km473/04L1305-k0MT//04H1389-Hm482/04L1305-k0MT (antibody, Heterodimerized antibody; also called SW1389-ART6+ACT1) heavy 1: EVQLVESGGGLVKPGGSLRLSCAASGFTFSSKTMNWVRQAPGKGLEWVSSISTQSHYIYYAESVKGRFTISRDNAKNSLYLQMNSLRAEDTAVYYCARYGKREDMLWVFDYWGQGTLVTVSSASTKGPSVFPLAPSSKSTSGGTAALGCLVKDYFPEPVTVSWNSGALTSGVHTFPAVLQSSGLYSLSSVVTVPSSSLGTQTYICNVNHKPSNTKVDKRVEPKSCDKTHTCPPCPAPEFQWGPMVFLFPPKPKDVLMISRTPEVTCVVVDVSDEEPEVKFNWYVDGVEVHNAKTKPREEQYNATYRVVSVLPVLHQDWLNGKEYKCKVSNDALPAPIEKTISKAKGQPREPQVCTLPPSREEMTKNQVSLWCLVKGFYPSDIAVEWESNGQPENNYKTTPPVLDSDGSFFLYSKLTVDKSRWQQGNVFSCSVMHEALHAHTTRKELSLSP heavy 2: EVQLVESGGGLVKPGGSLRLSCAASGFTFSSKTMNWVRQAPGKGLEWVSSISTQSHYIYYAESVKGRFTISRDNAKNSLYLQMNSLRAEDTAVYYCARYGKREDMLWVFDYWGQGTLVTVSSASTKGPSVFPLAPSSKSTSGGTAALGCLVKDYFPEPVTVSWNSGALTSGVHTFPAVLQSSGLYSLSSVVTVPSSSLGTQTYICNVNHKPSNTKVDKRVEPKSCDKTHTCPPCPAPELLAGPSVFLFPPKPKDVLMISRTPEVTCVVVDVSHEEPEVKFNWYVDGVEVHNAKTKPREEQYNATYRVVSVLPVLHQDWLNGKEYKCKVSNDALPKPDEETISKAKGQPREPQVYTLPPSRCEMTKNQVSLSCAVKGFYPSDIAVEWESNGQPENNYKTTPPVLDSDGSFFLVSKLTVDKSRWQQGNVFSCSVMHEALHAHTTRKELSLSP light: DIVMTQSPLSLPVTPGEPASISCDGPSTGVGDYNYVHWYQQKPGQAPRLLIYFTSKKPSGVPDRFSGSGSGTDFTLKISRVEAEDVGVYYCQTYAAPLGPMFGQGTKLEIKRTVAAPSVFIFPPSDEQLKSGTASVVCLLNNFYPREAKVQWKVDNALQSGNSQESVTEQDSKDSTYSLSSTLTLSKADYEKHKVYACEVTHQGLSSPVTKSFNRGEC | 0.061 | 86 | 35 | 2.7 | 0.95 | 0.034 | 370 | 2.7 | 1.1 | 18.5 | 30.8 | 258 | 930 | 3
